This is an account of results in patent publication US20220073609A1 (DENALI THERAPEUTICS, published 2022).

No end group written: not given here.

As a reminder, the Kd is the equilibrium constant for the complex coming apart. The EC50 is the midpoint of the concentration-response curve. Read a low EC50 as a more potent agent.

Test [1] addresses T1, Mouse TREM2 peptide (aa 149-163) (mouse, UniProt Q99NH8 149-163, also: biotinylated).
T1 construct: range 149-163; also called truncated stalk peptide, mouse
T1 peptide (looked up): SFEGAQVEHSTSRNQ
Kind of test: ELISA, biotinylated stalk peptide on streptavidin plate, anti-human kappa-HRP detection. How it is done:
(§1) TREM2 antibodies were evaluated for binding to human and mouse TREM2 stalk region peptides. […] Antibody binding to TREM2 stalk peptides was detected using standard sandwich ELISA. Briefly, a 96-well half-area ELISA plate was coated with streptavidin overnight at 4° C. The following day, biotinylated TREM2 stalk peptides diluted in 1% BSA/PBS were added to the plate and incubated for 1 hour. Antibodies diluted in 1% BSA/PBS were then added and incubated for 1 hour. Antibodies bound to peptide were detected with anti-human kappa-HRP secondary antibody (Bethyl Laboratories, Inc.) diluted in 1% BSA/PBS. Plates were assayed by reaction with a detection reagent (One-step TMB Ultra, Thermo) and measurement of absorbance at 450 nm (A450) by standard spectrophotometry instrumentation (BioTek®). Data are shown as normalized values (fold over background where background=isotype control).

Test [2] addresses T2, Human TREM2 peptide (aa 149-163) (human, also: biotinylated).
T2 construct: also called truncated stalk peptide containing the ADAM10/17 cleavage site
T2 peptide: SFEDAHVEHSISRSL
The description is as above. As to the method:
as §1

Test [3] deals with Mouse TREM2 peptide (aa 131-169) (mouse) (UniProt Q99NH8). Described as above.
Test [4] addresses Human TREM2 peptide (aa 129-172) (human). The description is as above.
Test [5] concerns the target T3, recombinant cynomolgus TREM2 ECD (cynomolgus, UniProt A0A2K5UY34 49-204).
T3 construct: extracellular domain; also called cyno TREM2
T3 sequence: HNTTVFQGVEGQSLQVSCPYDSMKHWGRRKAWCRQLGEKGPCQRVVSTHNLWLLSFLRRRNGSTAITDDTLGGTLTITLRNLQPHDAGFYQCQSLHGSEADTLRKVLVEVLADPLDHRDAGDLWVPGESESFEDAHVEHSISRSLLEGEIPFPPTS
Kind of test: SPR (Biacore), cynomolgus TREM2. How it is done:
(§2) Surface plasmon resonance (Biacore™ 8K instrument) was used to measure anti-TREM2 antibody affinities for human and cynomolgus TREM2 ECD. Anti-TREM2 antibodies were captured using Human Fab Capture Kit (GE Healthcare Life Sciences, Catalog No. 28958325) on a Biacore Series S CM5 sensor chip (GE Healthcare Life Sciences, Catalog No. 29149604). Serial 3-fold dilutions of recombinant human or cynomolgus TREM2 were injected at a flow rate of 30 μL/min. Antibody binding was monitored for 300 seconds, followed by monitoring of antibody dissociation for 600+ seconds in HBS-EP+ running buffer (GE Healthcare Life Sciences, Catalog No. BR100669). The binding response was corrected by subtracting the RU value from a blank flow cell. A 1:1 Languir model of simultaneous fitting of kₒₙ, and koff was used for kinetics analysis.
(§3) The affinity of anti-TREM2 antibodies to human TREM2 and cynomolgus TREM2 were measured by Biacore (described in Example 1). The potency of anti-TREM2 antibodies were measured in healthy human volunteer CSF samples (Innovative Research) and healthy cynomolgus monkey CSF samples (Worldwide Primates), by MSD assay. The potency of each antibody was determined by its EC50. Briefly, MSD GOLD 96-well small spot streptavidin plates (MSD, Cat. No. L45SA) coated with capture antibody (biotinylated goat anti-human TREM2, R&D Systems, Cat. No. BAF1828) was incubated with biofluid samples diluted 1:3 in Assay Buffer (25% (v/v) MSD Blocker A (MSD, Cat. No. R93BA-A), 75% (v/v) TBST) for one hour at room temperature. After rinsing the wells with TBST, sulfo-tagged anti-TREM2 antibody was added in a serial dilution (4× dilution over 11 points) to the wells of the plate and incubated for one hour at room temperature. The wells were washed with TBST, and MSD Read Buffer (MSD, Cat. No. R92TC-3) was added to the wells. Signal from the samples were measured using an MSD Meso Sector 5600 device. EC50 values for each antibody was determined by four-parameter variable slope non-linear regression. Reference antibodies #1 and #2 correspond to 4C5 and 6E7 described in WO 2018/195506. Reference antibody #3 corresponds to AL2p-58 described in WO 2019/028292. The variable regions of reference antibody #1 are represented by SEQ ID NOS:73 and 74.
For orientation: Surface plasmon resonance follows binding to a sensor surface in real time, without labels.

For another test, the target named is T4, sTREM2 in cynomolgus CSF (cynomolgus monkey, UniProt A0A2K5UY34 49-187).
T4 construct: domain: soluble TREM2 (sTREM2); also called soluble TREM2 in healthy cynomolgus monkey CSF
T4 sequence: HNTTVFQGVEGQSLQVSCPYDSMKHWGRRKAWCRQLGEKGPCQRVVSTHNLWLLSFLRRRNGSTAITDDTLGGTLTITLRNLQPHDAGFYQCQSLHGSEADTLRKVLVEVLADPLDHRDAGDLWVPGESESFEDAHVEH
Kind of test: MSD assay, sTREM2 from CSF captured by biotinylated goat anti-human TREM2, sulfo-tagged test antibody titrated. As to the method: as §3, with “74. The variable regions of reference antibody #2 are represented by SEQ ID NOS:75 and 76. The variable regions of reference antibody #3 are represented by SEQ ID NOS:77 and 78.” for “74.”

Test [6] has as its target T3, recombinant cynomolgus TREM2 ECD. The test is described as follows: SPR (Biacore 8K), antibody captured with Human Fab Capture Kit, recombinant TREM2 ECD injected, 1:1 fit. As to the method:
as §2

Chain of Human TREM2 peptide (aa 129-172) (human) (peptide, as listed by the source): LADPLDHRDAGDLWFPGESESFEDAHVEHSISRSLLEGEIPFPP
Chain of Mouse TREM2 peptide (aa 131-169) (mouse) (Q99NH8 131-169 limits assumed, form in doubt): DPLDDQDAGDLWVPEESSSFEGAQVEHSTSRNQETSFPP

Isotype control (antibody): the A450 fold over background (background = isotype control) in test [1], in test [2], in test [3] and in test [4] was 1 fold each time.

B1: Reference antibody #1 (antibody, V domains shown)
VH: EVQLVQSGAEVKKPGESLKISCKGSGHSFTNYWIAWVRQMPGKGLEWMGIIYPGDSDTRYSPSFQGQVTISADKSISTAYLQWSSLKASDTAVYFCARQRTFYYDSSGYFDYWGQGTLVTVSS
VL: DIQMTQSPSSVSASVGDRVTITCRASQGISNWLAWYQQKPGKAPKLLIYAASSLQVGVPLRFSGSGSGTDFTLTISSLQPEDFATYYCQQADSFPRNFGQGTKLEIK
notes: also called 4C5 (WO 2018/195506)
As for B1, the Kd in test [5] was 14 nM. Moreover, in the test with sTREM2 in cynomolgus CSF, the EC50 came to 81.6 nM.

B2: Reference antibody #2 (antibody, V domains shown)
VH: EVQLVQSGAEVKKPGESLKISCKGSGYSFTSYWIAWVRQMPGKGLEWMGIIYPGDSDTRYSPSFQGQVTISADKSISTAYLQWSSLKASDTAMYFCARQRTFYYDSSDYFDYWGQGTLVTVSS
VL: DIQMTQSPSSVSASVGDRVTITCRASQGISSWLAWYQQKPGKAPKLLIYAASSLQNGVPSRFSGSGSGTDFTLTISSLQPEDFATYFCQQADSFPRTFGQGTKLEIK
notes: also called 6E7 (WO 2018/195506)
Take B2: the Kd in test [5] was 9.2 nM. The molecule also showed an EC50 with sTREM2 in cynomolgus CSF of 6.5 nM.

B3: Reference antibody #3 (antibody, V domains shown)
VH: QVQLVQSGAEVKKPGASVKVSCKASGYAFSSQWMNWVRQAPGQRLEWIGRIYPGGGDTNYAGKFQGRVTITADTSASTAYMELSSLRSEDTAVYYCARLLRNQPGESYAMDYWGQGTLVTVSS
VL: DVVMTQSPDSLAVSLGERATINCRSSQSLVHSNRYTYLHWYQQKPGQSPKLLIYKVSNRFSGVPDRFSGSGSGTDFTLKISRVEAEDVGVYYCSQSTRVPYTFGQGTKLEIK
notes: also called AL2p-58 (WO 2019/028292)
Consider B3, for which the Kd in test [5] came out at 9.2 nM. In the test with sTREM2 in cynomolgus CSF, the EC50 was found to be 33.7 nM.

B4: CL0020188 (antibody, V domains shown)
VH: EVKLLDSGGGLVQAGGSLRLSCAGSGFTFTDFYMSWIRQPPGKAPEWLGVIRNKANGYTAGYNPSVKGRFTISRDNTQNILYLQMNTLRAEDTAIYYCARLTYGFDYWGQGVMVTVSS
VL: DIVMTQGALPNPVPSGESASITCQSSKSLLHSNGKTYLNWYLQRPGQSPQLLIYWMSTRASGVSDRFSGSGSGTDFTLKISSVEAEDVGVYYCQQFLEYPFTFGSGTKLEIK
notes: also called Clone CL0020188
Regarding B4, the Kd in test [6] is 2 nM. The “A450 fold over background (background = isotype control)” value is 0.9 fold in test [1] and 3 fold in test [2].

B5: CL0020188-7 (antibody, V domains shown)
VH: EVQLVESGGGLVQPGGSLRLSCAASGFTFTDFYMSWVRQAPGKGLEWVSVIRNKANAYTAGYNPSVKGRFTISRDNSKNTLYLQMNSLRAEDTAVYYCARLTYGFDYWGQGTLVTVSS
VL: DIVMTQTPLSLPVTPGEPASISCQSSKSLLHSTGKTYLNWYLQKPGQSPQLLIYWMSTRASGVPDRFSGSGSGTDFTLKISRVEAEDVGVYYCQQFLEYPFTFGQGTKVEIK
notes: Humanized variant of CL0020188
As for B5, in test [5], the Kd worked out at 2.8 nM. Besides, the EC50 with sTREM2 in cynomolgus CSF was found to be 0.72 nM.

B6: CL0020188-4 (antibody, V domains shown)
VH: EVQLVESGGGLVQPGGSLRLSCAGSGFTFTDFYMSWVRQAPGKGPEWLSVIRNKANGYTAGYNPSVKGRFTISRDNSKNTLYLQMNSLRAEDTAVYYCARLTYGFDYWGQGTLVTVSS
VL: DIVMTQTPLSLPVTPGEPASISCQSSKSLLHSTGKTYLNWYLQKPGQSPQLLIYWMSTRASGVPDRFSGSGSGTDFTLKISRVEAEDVGVYYCQQFLEYPFTFGQGTKVEIK
notes: as for B5
For B6, in test [5], the Kd was determined as 1.5 nM. The same molecule had an EC50 in the test with sTREM2 in cynomolgus CSF of 0.28 nM.

B7: CL0020123-5 (antibody, V domains shown)
VH: QVQLVQSGAEVKKPGASVKVSCKASGFSIEDFYIHWVRQAPGQGLEWMGWIDPEQGESKYAPKFQGRATITADTSTSTAYMELSSLRSEDTAVYYCHADHGNYGSTMDYWGQGTLVTVSS
VL: DIQMTQSPSSLSASVGDRVTITCHASQHINVWLSWYQQKPGKAPKLLIYKASNLHTGVPSRFSGSGSGTDFTLTISSLQPEDFATYYCQQGQTYPRTFGQGTKVEIK
notes: Humanized variant of CL0020123
In the case of B7, in test [5], the Kd came out at 9.3 nM. For the same molecule, the EC50 with sTREM2 in cynomolgus CSF worked out at 49.4 nM.

B8: CL0020123 (antibody, V domains shown)
VH: EVQLQQSGAELVRSGASVKLSCTASGFSIEDFYIHWVKQRPEQGLEWIGWIDPENGDSKYAPKFQGKATMTADTSSNTAYLHLSSLTSEDTAVYYCHADHGNYGSTMDYWGQGTSVTVSS
VL: DIQMNQSPSSLSASLGDTVTITCHASQHINVWLSWYQQKPGDHPKLLIYKASNLHTGVPSRFSGSGSGTGFTLTISSLQPEDIATYYCQQGQTYPRTFGGGTKLEIK
notes: also called Clone CL0020123
For the molecule B8, the Kd in test [6] amounted to 5.7 nM. In addition, the “A450 fold over background (background = isotype control)” value in test [1] is 0.9 fold.

B9: CL0020123-7 (antibody, V domains shown)
VH: QVQLVQSGAEVKKPGASVKVSCKASGFSIEDFYIHWVRQAPGQGLEWMGWIDPENGESKYAPKFQGRVTITADTSTSTAYMELSSLRSEDTAVYYCHADHGNYGSTMDYWGQGTLVTVSS
VL: DIQMTQSPSSLSASVGDRVTITCHASQHINVWLSWYQQKPGKAPKLLIYKASNLHTGVPSRFSGSGSGTDFTLTISSLQPEDFATYYCQQGQTYPRTFGQGTKVEIK
notes: as for B7
For the molecule B9, the Kd in test [5] stood at 9.4 nM. This molecule returned a 50% effective concentration (EC50) with sTREM2 in cynomolgus CSF of 16.9 nM.
